According to PMC11551953, “Probing Electrostatic and Hydrophobic Associative Interactions in Cells” (The Journal of Physical Chemistry. B, 2024):
One block for each molecule: values may come before it. Where no end group is shown, it is not given here.

What was measured:
GFP(EEE)4 = experiment: other fluorescence titration; probe (1 μM) with BSA titrated up to 100 mg/mL (2 mM) in a 96-well plate; ratio of excitation at 405 nm/488 nm, emission 520 nm; 10 mM NaPi, 100 mM KCl, pH 7.4; room temperature; fitted to a Hill function; KD of BSA (+92e) with GFP(EEE)4 called apparent
GFP(ESE)4 = experiment: as above
GFP(ESS)4 = experiment: as above
GFP(KLL)4 = experiment: as above
[1] = target: cationic and hydrophobic probes; experiment: as above
[2] = target: T1, wtBSA(-17e), bovine serum albumin (bovine, UniProt P02769 25-607); experiment: other fluorescence titration; BSA titrated to 1 uM probe (His-tag removed) in a 96-well plate; excitation ratio 405 nm/488 nm at 520 nm emission; 10 mM NaPi, 100 mM KCl, pH 7.4, room temperature; ratio against BSA concentration fitted to a Hill function (k = KD, n = Hill coefficient); errors are errors in the fits; conditions: both partners purified
T1 construct: bovine serum albumin, wild type; also called wtBSA (−18e); BSA(-18e); source: bought: Sigma-Aldrich; further purified by repeated concentration on an Amicon 10 kD cutoff filter
T1 sequence (P02769 25-607): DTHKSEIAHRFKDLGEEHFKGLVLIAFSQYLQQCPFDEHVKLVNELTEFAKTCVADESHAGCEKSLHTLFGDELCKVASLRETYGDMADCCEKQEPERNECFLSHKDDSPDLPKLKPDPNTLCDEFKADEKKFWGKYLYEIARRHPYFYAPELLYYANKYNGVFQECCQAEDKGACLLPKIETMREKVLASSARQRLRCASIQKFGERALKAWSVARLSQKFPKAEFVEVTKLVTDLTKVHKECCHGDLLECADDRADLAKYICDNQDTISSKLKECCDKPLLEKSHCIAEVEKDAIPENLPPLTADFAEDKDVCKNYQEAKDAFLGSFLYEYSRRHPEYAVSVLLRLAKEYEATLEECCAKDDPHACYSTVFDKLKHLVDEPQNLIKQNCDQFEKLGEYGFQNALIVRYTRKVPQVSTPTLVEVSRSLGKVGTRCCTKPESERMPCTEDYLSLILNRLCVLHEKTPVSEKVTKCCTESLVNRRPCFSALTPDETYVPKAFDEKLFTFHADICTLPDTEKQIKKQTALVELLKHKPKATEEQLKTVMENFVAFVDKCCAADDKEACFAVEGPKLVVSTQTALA

bovine serum albumin (BSA), wild type, sequence (P02769 25-607): as above

Molecule: bovine serum albumin (BSA), wild type (from UniProt P02769 25-607) (natural protein)
Kd (GFP(EEE)4): > 1000 µM
Kd (GFP(ESE)4): > 1000 µM
Kd (GFP(ESS)4): > 1000 µM
Kd (GFP(KLL)4): 100 to 200 µM
Kd [1]: 100 to 200 µM

Molecule: KLKKLKKLKKLK (other, also: fused to cpGFP reporter, not in chain) [GFP(KLK)4]
Kd [2]: 220 µM

More lines, in order of falling Kd [2], values ahead:

Kd [2]: 170 µM
Molecule: KKKKKKKKKKKK (other, also: fused to cpGFP reporter, not in chain) [GFP(KKK)4]

Kd [2]: 110 µM
Molecule: KLLKLLKLLKLL (other, also: fused to cpGFP reporter, not in chain) [GFP(KLL)4]
